Experiment [1] deals with T1, human amylin receptor (human calcitonin receptor co-expressed with RAMP-3; amylin 3(a) receptor) (human, UniProt P30988 25-474; O60896 24-148, limits assumed).
T1 construct: whole, on cells; Used as cell membranes prepared from Amylin 3(a)/CRE-luc BHK cells (Assay V), not as intact cells; also called hAmylin-R; hAmylinR
T1 sequence (looked up) 1: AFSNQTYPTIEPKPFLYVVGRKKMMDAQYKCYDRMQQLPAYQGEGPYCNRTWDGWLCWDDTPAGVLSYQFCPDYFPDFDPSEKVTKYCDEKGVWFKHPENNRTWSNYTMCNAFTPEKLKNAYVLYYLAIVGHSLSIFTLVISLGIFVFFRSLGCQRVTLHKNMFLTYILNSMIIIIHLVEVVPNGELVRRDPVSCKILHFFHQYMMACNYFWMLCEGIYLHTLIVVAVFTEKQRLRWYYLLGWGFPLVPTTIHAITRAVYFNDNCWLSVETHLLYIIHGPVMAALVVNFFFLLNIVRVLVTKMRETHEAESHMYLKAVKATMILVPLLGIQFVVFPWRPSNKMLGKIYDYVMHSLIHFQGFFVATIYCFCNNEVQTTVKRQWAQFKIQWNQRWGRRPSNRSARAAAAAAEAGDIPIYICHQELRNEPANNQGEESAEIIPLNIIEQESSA
T1 sequence (looked up) 2: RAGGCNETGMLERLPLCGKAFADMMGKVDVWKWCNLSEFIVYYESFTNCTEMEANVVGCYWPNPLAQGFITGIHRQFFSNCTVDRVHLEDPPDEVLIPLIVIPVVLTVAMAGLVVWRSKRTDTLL
The experiment can be described thus: ratio of hCTR binding IC50 to hAmylin-R binding IC50 (reference: human calcitonin receptor). How it is done: The resulting pellet was resuspended, homogenized and centrifuged (20.000 rpm, 15 min) in a buffer containing 20 mM Na-HEPES and 0.1 mM EDTA (pH 7.4, buffer 2). The resulting pellet was resuspended in buffer 2 and protein concentration was measured (BCA protein Assay, Pierce). The homogenate was kept cold during the whole procedure. The membranes were kept at −80° C. until use. The assay was performed in a 384 well Optiplate (PerkinElmer) in a total volume of 40 ul. Membranes were mixed with SPA beads. Final concentration of membranes 35 ng/μL final and SPA beads was 0.05 mg/well. Test-compounds were dissolved in DMSO and further diluted in assay buffer (50 mM Hepes, pH 7.4, 1 mM CaCl2, 5 mM MgCl₂, 0.1% OA and 0.02% Tween20). […] The final mixture was incubated with shaking at 400 rpm for 120 min at 25° C. prior to centrifugation (1500 rpm, 10 min). Samples were analyzed on TopCounter™ (Packard). The IC₅₀ was calculated using (one site binding competition analysis) GraphPad Prism5 as a measure of receptor affinity.
Membranes were prepared in the following way; the cells were rinsed with PBS and incubated with Versene for approximately 5 min before harvesting. The cells were flushed with PBS and the cell-suspension was centrifuged for 5 min at 1000 rpm. Cells were homogenized (Ultrathurrax) in a buffer containing 20 mM Na-HEPES and 10 mM EDTA (pH 7.4) and centrifuged at 20.000 rpm for 15 min. The resulting pellet was resuspended, homogenized and centrifuged (20.000 rpm, 15 min) in a buffer containing 20 mM Na-HEPES and 0.1 mM EDTA (pH 7.4, buffer 2). The resulting pellet was resuspended in buffer 2 and protein concentration was measured (BCA protein Assay, Pierce). The homogenate was kept cold during the whole procedure. The membranes were kept at −80° C. until use. Assay was performed in a 384 well Optiplate (PerkinElmer) in a total volume of 40 ul. Membranes were mixed with SPA beads.

The target in experiment [2] is T2, human calcitonin receptor (human, UniProt P30988 25-474).
T2 construct: whole, on cells; Used as cell membranes prepared from the transfected BHK cells (Assay VII), not as intact cells; also called hCTR; hCT
T2 sequence (looked up): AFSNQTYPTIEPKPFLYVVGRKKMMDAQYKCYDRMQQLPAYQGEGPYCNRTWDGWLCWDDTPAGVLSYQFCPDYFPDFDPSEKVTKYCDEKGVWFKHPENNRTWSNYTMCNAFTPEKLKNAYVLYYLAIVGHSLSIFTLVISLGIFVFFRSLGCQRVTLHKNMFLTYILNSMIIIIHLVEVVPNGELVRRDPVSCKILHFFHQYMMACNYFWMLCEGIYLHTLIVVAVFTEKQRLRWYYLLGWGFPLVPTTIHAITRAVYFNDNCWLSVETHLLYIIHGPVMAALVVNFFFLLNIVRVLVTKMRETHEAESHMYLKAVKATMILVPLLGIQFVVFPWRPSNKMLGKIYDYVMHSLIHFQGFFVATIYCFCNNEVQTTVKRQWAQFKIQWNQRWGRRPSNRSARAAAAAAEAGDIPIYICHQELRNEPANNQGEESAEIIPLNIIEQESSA
The experiment can be described thus: SPA competition against 125I-calcitonin, membranes with human calcitonin receptor (Assay VII). The procedure, abridged:
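BHK hCTR membranes 35 ng/μL + SPA beads 0.05 mg/well; buffer 50 mM Hepes pH 7.4, 1 mM CaCl2, 5 mM MgCl₂, 0.1% OA, 0.02% Tween20. 120 min, 25° C., shaking. Scintillation count; IC50 by one-site binding competition.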

Numbered stars: 1 amine (or outer) side, 2 acyl side, 3 side chain; on linkers, the order of the positions; unused ones are H or OH. Bridge positions count the residues as written; N and C are the ends. Side chains are listed from the residue outwards. Ends that are not written are not given here. * marks the point of attachment. C20 diacid = O=C(O)CCCCCCCCCCCCCCCCCCC(=O)*; γGlu = O=C(O)[C@H](CCC(=O)[*:2])N[*:1]; AEEA = NCCOCCOCC(=O)O

B1: N^ε1-[2-[2-[2-[[(4S)-4-carboxy-4-(19-carboxynonadecanoylamino)butanoyl]amino]ethoxy]ethoxy]acetyl]-[Arg14,Arg17,Pro21,Pro27,Pro31]-h-amylin (peptide)
peptide: K([AEEA-γGlu-C20 diacid])CNTATCATQRLARFLRHSSPNFGAIPSSTPVGSNTY-NH2
modifications: disulfide 2-7; N-terminus assumed
SMILES: CC[C@H](C)[C@H](NC(=O)[C@H](C)NC(=O)CNC(=O)[C@H](Cc1ccccc1)NC(=O)[C@H](CC(N)=O)NC(=O)[C@@H]1CCCN1C(=O)[C@H](CO)NC(=O)[C@H](CO)NC(=O)[C@H](Cc1c[nH]cn1)NC(=O)[C@H](CCCNC(=N)N)NC(=O)[C@H](CC(C)C)NC(=O)[C@H](Cc1ccccc1)NC(=O)[C@H](CCCNC(=N)N)NC(=O)[C@H](C)NC(=O)[C@H](CC(C)C)NC(=O)[C@H](CCCNC(=N)N)NC(=O)[C@H](CCC(N)=O)NC(=O)[C@@H](NC(=O)[C@H](C)NC(=O)[C@@H]1CSSC[C@H](NC(=O)[C@@H](N)CCCCNC(=O)COCCOCCNC(=O)CC[C@H](NC(=O)CCCCCCCCCCCCCCCCCCC(=O)O)C(=O)O)C(=O)N[C@@H](CC(N)=O)C(=O)N[C@@H]([C@@H](C)O)C(=O)N[C@@H](C)C(=O)N[C@@H]([C@@H](C)O)C(=O)N1)[C@@H](C)O)C(=O)N1CCC[C@H]1C(=O)N[C@@H](CO)C(=O)N[C@@H](CO)C(=O)N[C@H](C(=O)N1CCC[C@H]1C(=O)N[C@H](C(=O)NCC(=O)N[C@@H](CO)C(=O)N[C@@H](CC(N)=O)C(=O)N[C@H](C(=O)N[C@@H](Cc1ccc(O)cc1)C(N)=O)[C@@H](C)O)C(C)C)[C@@H](C)O
notes: also called compound 64
As for B1, in experiment [1], the “Ratio hCT/hAmylin binding” value turned out to be 126. Besides, the half-maximal inhibitory concentration (IC50) in experiment [2] was 56 nM.

B2: N^ε1-[2-[2-[2-[[(4S)-4-carboxy-4-(19-carboxynonadecanoylamino)butanoyl]amino]ethoxy]ethoxy]acetyl]-[Arg17,Pro21,Pro27,Pro29,Pro34]-h-amylin (peptide)
peptide: K([AEEA-γGlu-C20 diacid])CNTATCATQRLANFLRHSSPNFGAIPSPTNVGPNTY-NH2
modifications: disulfide 2-7; N-terminus assumed
SMILES: CC[C@H](C)[C@H](NC(=O)[C@H](C)NC(=O)CNC(=O)[C@H](Cc1ccccc1)NC(=O)[C@H](CC(N)=O)NC(=O)[C@@H]1CCCN1C(=O)[C@H](CO)NC(=O)[C@H](CO)NC(=O)[C@H](Cc1c[nH]cn1)NC(=O)[C@H](CCCNC(=N)N)NC(=O)[C@H](CC(C)C)NC(=O)[C@H](Cc1ccccc1)NC(=O)[C@H](CC(N)=O)NC(=O)[C@H](C)NC(=O)[C@H](CC(C)C)NC(=O)[C@H](CCCNC(=N)N)NC(=O)[C@H](CCC(N)=O)NC(=O)[C@@H](NC(=O)[C@H](C)NC(=O)[C@@H]1CSSC[C@H](NC(=O)[C@@H](N)CCCCNC(=O)COCCOCCNC(=O)CC[C@H](NC(=O)CCCCCCCCCCCCCCCCCCC(=O)O)C(=O)O)C(=O)N[C@@H](CC(N)=O)C(=O)N[C@@H]([C@@H](C)O)C(=O)N[C@@H](C)C(=O)N[C@@H]([C@@H](C)O)C(=O)N1)[C@@H](C)O)C(=O)N1CCC[C@H]1C(=O)N[C@@H](CO)C(=O)N1CCC[C@H]1C(=O)N[C@H](C(=O)N[C@@H](CC(N)=O)C(=O)N[C@H](C(=O)NCC(=O)N1CCC[C@H]1C(=O)N[C@@H](CC(N)=O)C(=O)N[C@H](C(=O)N[C@@H](Cc1ccc(O)cc1)C(N)=O)[C@@H](C)O)C(C)C)[C@@H](C)O
notes: also called compound 56
For the molecule B2, the “Ratio hCT/hAmylin binding” value in experiment [1] stood at 42.6. Also, in experiment [2], the IC50 was determined as 2.09 nM.

B3: N^ε1-[2-[2-[2-[[(4S)-4-carboxy-4-(19-carboxynonadecanoylamino)butanoyl]amino]ethoxy]ethoxy]acetyl]-[Arg17,Pro21,Pro27,Pro28,Pro34]-h-amylin (peptide)
peptide: K([AEEA-γGlu-C20 diacid])CNTATCATQRLANFLRHSSPNFGAIPPSTNVGPNTY-NH2
modifications: disulfide 2-7; N-terminus assumed
SMILES: CC[C@H](C)[C@H](NC(=O)[C@H](C)NC(=O)CNC(=O)[C@H](Cc1ccccc1)NC(=O)[C@H](CC(N)=O)NC(=O)[C@@H]1CCCN1C(=O)[C@H](CO)NC(=O)[C@H](CO)NC(=O)[C@H](Cc1c[nH]cn1)NC(=O)[C@H](CCCNC(=N)N)NC(=O)[C@H](CC(C)C)NC(=O)[C@H](Cc1ccccc1)NC(=O)[C@H](CC(N)=O)NC(=O)[C@H](C)NC(=O)[C@H](CC(C)C)NC(=O)[C@H](CCCNC(=N)N)NC(=O)[C@H](CCC(N)=O)NC(=O)[C@@H](NC(=O)[C@H](C)NC(=O)[C@@H]1CSSC[C@H](NC(=O)[C@@H](N)CCCCNC(=O)COCCOCCNC(=O)CC[C@H](NC(=O)CCCCCCCCCCCCCCCCCCC(=O)O)C(=O)O)C(=O)N[C@@H](CC(N)=O)C(=O)N[C@@H]([C@@H](C)O)C(=O)N[C@@H](C)C(=O)N[C@@H]([C@@H](C)O)C(=O)N1)[C@@H](C)O)C(=O)N1CCC[C@H]1C(=O)N1CCC[C@H]1C(=O)N[C@@H](CO)C(=O)N[C@H](C(=O)N[C@@H](CC(N)=O)C(=O)N[C@H](C(=O)NCC(=O)N1CCC[C@H]1C(=O)N[C@@H](CC(N)=O)C(=O)N[C@H](C(=O)N[C@@H](Cc1ccc(O)cc1)C(N)=O)[C@@H](C)O)C(C)C)[C@@H](C)O
notes: also called compound 55
B3: the “Ratio hCT/hAmylin binding” value in experiment [1] came out at 51.8. Besides, the IC50 in experiment [2] was 2.17 nM.
The like results for K([AEEA-γGlu-C20 diacid])CNTATCATQRLANFLRHSSPNFGAIPPSTPVGSNTY-NH2 (disulfide 2-7, also called compound 53) were, in that order, 104 and 5.38 nM.

B4: N^ε1-[2-[2-[2-[[(4S)-4-carboxy-4-(19-carboxynonadecanoylamino)butanoyl]amino]ethoxy]ethoxy]acetyl]-[Arg17,Pro21,Pro27,Pro29,Pro31]-h-amylin (peptide)
peptide: K([AEEA-γGlu-C20 diacid])CNTATCATQRLANFLRHSSPNFGAIPSPTPVGSNTY-NH2
modifications: disulfide 2-7; N-terminus assumed
SMILES: CC[C@H](C)[C@H](NC(=O)[C@H](C)NC(=O)CNC(=O)[C@H](Cc1ccccc1)NC(=O)[C@H](CC(N)=O)NC(=O)[C@@H]1CCCN1C(=O)[C@H](CO)NC(=O)[C@H](CO)NC(=O)[C@H](Cc1c[nH]cn1)NC(=O)[C@H](CCCNC(=N)N)NC(=O)[C@H](CC(C)C)NC(=O)[C@H](Cc1ccccc1)NC(=O)[C@H](CC(N)=O)NC(=O)[C@H](C)NC(=O)[C@H](CC(C)C)NC(=O)[C@H](CCCNC(=N)N)NC(=O)[C@H](CCC(N)=O)NC(=O)[C@@H](NC(=O)[C@H](C)NC(=O)[C@@H]1CSSC[C@H](NC(=O)[C@@H](N)CCCCNC(=O)COCCOCCNC(=O)CC[C@H](NC(=O)CCCCCCCCCCCCCCCCCCC(=O)O)C(=O)O)C(=O)N[C@@H](CC(N)=O)C(=O)N[C@@H]([C@@H](C)O)C(=O)N[C@@H](C)C(=O)N[C@@H]([C@@H](C)O)C(=O)N1)[C@@H](C)O)C(=O)N1CCC[C@H]1C(=O)N[C@@H](CO)C(=O)N1CCC[C@H]1C(=O)N[C@H](C(=O)N1CCC[C@H]1C(=O)N[C@H](C(=O)NCC(=O)N[C@@H](CO)C(=O)N[C@@H](CC(N)=O)C(=O)N[C@H](C(=O)N[C@@H](Cc1ccc(O)cc1)C(N)=O)[C@@H](C)O)C(C)C)[C@@H](C)O
notes: also called compound 54
With B4, the “Ratio hCT/hAmylin binding” value in experiment [1] worked out at 146. In experiment [2], the 50% inhibitory concentration (IC50) was 4.38 nM.

The record behind these values is patent US20140087995A1 (published 2014).
